Assay results reported in PMC2116304 (The Journal of Cell Biology, 1990).
Several values for one entry are separate records, joined by “and”; a condition that tells them apart may be missing. Equal entries are not always repeated. Each block holds one molecule with its values, some of them ahead of it.

How the values were obtained:
[1] = biological target: K3 proteolytic fragment of the invariant chain (18,000 D, lumenal) (human); assay: cross-linking
SEC = biological target: the molecule itself; assay: SEC
[2] = biological target: the molecule itself; assay: non-reducing SDS-PAGE without cross-linker
cross-linking = biological target: the molecule itself; assay: cross-linking

stoichiometry N [1]: 3
Molecule: K3 proteolytic fragment of the invariant chain (18,000 D, lumenal) (domain or fragment)

B1: excess (class II-unassociated) invariant chain from Swei B-LCL (natural protein, human, UniProt P04233-2 1-232, looked up)
chain: MHRRRSRSCREDQKPVMDDQRDLISNNEQLPMLGRRPGAPESKCSRGALYTGFSILVTLLLAGQATTAYFLYQQQGRLDKLTVTSQNLQLENLRMKLPKPPKPVSKMRMATPLLMQALPMGALPQGPMQNATKYGNMTEDHVMHLLQNADPLKVYPPLKGSFPENLRHLKNTMETIDWKVFESWMHHWLLFEMSRHSLEQKPTDAPPKESLELEDPSSGLGVTKQDLGPVPM
modifications: [35S]methionine-labelled; N-linked glycans, endo H-sensitive
stoichiometry N (SEC): 3

B2: invariant chain (from the class II-negative hybrid cell line 174xCEM.T2) (natural protein, human, UniProt P04233-2 1-232, looked up)
chain: B1 chain
modifications: N-linked glycans, endo H-sensitive; [35S]methionine-labelled in the affinity-purified samples
stoichiometry N [2]: 2
stoichiometry N (cross-linking): 3 and 4 and 6
